The target in experiment [1] is T1, human FcRn (hFcRn) (human, UniProt P55899 24-297; P16213 21-119, limits assumed).
T1 construct: hFcRn was the soluble analyte in SPR; also called FcRn analyte
The experiment in a line: SPR (Biacore 3000), antibody amine-coupled on CM5, hFcRn analyte, pH 6.0, 25 C, 1:1 model. On the procedure:
SPR measurements were performed using a Biacore 3000. […] The sensor chip surface was regenerated with a 30 sec pulse of 10 mM glycine pH 1.5 at a flow rate of […] followed by a 15 second pulse of buffer. Measurements were performed at 25° C. using HBS-P as the running buffer. The reference flow cell was activated and blocked in a mock amine coupling reaction. The data was fit to a 1:1 binding model using Biaevalution v.4.1 software.

Experiment [2] concerns the target T1, human FcRn (hFcRn). The experiment in a line: SPR (Biacore 3000), antibody amine-coupled on CM5, hFcRn analyte, pH 7.5, 25 C, 1:1 model.

Substitutions are numbered along the chain they refer to.

What is called Kd is the concentration at which binding is half-saturated. A high value points to a looser complex. In general, koff refers to a measure of how fast the partners let go of each other. Usually kon stands for the rate constant with which the complex forms.

T1 sequence (P55899 24-297 limits assumed, chain 1 of 2): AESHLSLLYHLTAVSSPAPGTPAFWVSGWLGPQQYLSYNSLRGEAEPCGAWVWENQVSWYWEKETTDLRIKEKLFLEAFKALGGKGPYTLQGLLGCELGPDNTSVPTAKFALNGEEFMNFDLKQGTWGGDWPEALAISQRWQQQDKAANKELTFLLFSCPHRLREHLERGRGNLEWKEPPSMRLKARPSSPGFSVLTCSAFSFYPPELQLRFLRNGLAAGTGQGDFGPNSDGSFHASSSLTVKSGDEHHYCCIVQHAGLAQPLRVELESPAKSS
T1 sequence (P16213 21-119 limits assumed, chain 2 of 2): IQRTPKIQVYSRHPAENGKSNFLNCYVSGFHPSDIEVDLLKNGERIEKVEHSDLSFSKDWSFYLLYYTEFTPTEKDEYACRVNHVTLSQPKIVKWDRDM

B1: DX-2504 anti-FcRn antibody (antibody, human IgG1, lambda)
heavy: not shown
light: QSALTQPASVSGSPGQSITISCTGTGSDVGSYNLVSWYQQHPGKAPKLMIYGDSQRPSGVSNRFSGSKSGNTASLTISGLQAEDEADYYCCSYAGSGIYVFGTGTKVTVLGQPKANPTVTLFPPSSEELQANKATLVCLISDFYPGAVTVAWKADGSPVKAGVETTKPSKQSNNKYAASSYLSLTPEQWKSHRSYSCQVTHEGSTVEKTVAPTECS
notes: It was immobilized by amine coupling in the SPR assay
In the experiment with human FcRn (hFcRn) [1], B1 yielded a Kd of 1.5 nM, a koff of 0.00035 s⁻¹ and a kon of 240000 M⁻¹ s⁻¹. Also, in the experiment with human FcRn (hFcRn) [2], the equilibrium dissociation constant (Kd) is 1.9 nM, the koff was found to be 0.00028 s⁻¹ and the kon worked out at 150000 M⁻¹ s⁻¹.

B2: 532A-X54-B03 (cys to ala mutant of DX-2504) (antibody, V domains shown)
VH: EVQLLESGGGLVQPGGSLRLSCAASGFTFSEYAMGWVRQAPGKGLEWVSSIGSSGGQTKYADSVKGRFTISRDNSKNTLYLQMNSLRAEDTAVYYCARLAIGDSYWGQGTMVTVSS
VL: QSALTQPASVSGSPGQSITISCTGTGSDVGSYNLVSWYQQHPGKAPKLMIYGDSQRPSGVSNRFSGSKSGNTASLTISGLQAEDEADYYCASYAGSGIYVFGTGTKVTVL
notes: also called 532-X54-B03; 532A-X53-B03
As to B2, the Kd in the experiment with human FcRn (hFcRn) [1] was 1.8 nM. Also, in the experiment with human FcRn (hFcRn) [2], the Kd turned out to be 2 nM and the on-rate (kon) came to 110000 M⁻¹ s⁻¹.

B3: 532A-X53-C02 (cys to ser mutant of DX-2504) (antibody, V domains shown)
VH: B2 VH
VL: B2 VL with A91S
notes: also called C54-C02
For B3, in the experiment with human FcRn (hFcRn) [1], binding was put at a Kd of 1.4 nM, the koff stood at 0.00043 s⁻¹ and the on-rate (kon) turned out to be 310000 M⁻¹ s⁻¹. In the experiment with human FcRn (hFcRn) [2], this molecule gave a dissociation constant (Kd) of 1.7 nM, an off-rate constant (koff) of 0.00032 s⁻¹ and a kon of 190000 M⁻¹ s⁻¹.

(Values after patent US20160304608A1 (published 2016).)
